The supplement of paper PMC10126150
± gives the standard deviation of the averaged measurements.

System: ATP
Test: switch fluorescence ratio, 500 uM ATP over buffer (Cy3 cluster intensity, sum of 5 cycles each) (fold (ratio)); higher = stronger signal-on switching upon ATP binding; sequences stand for … in TCGTCGGCAGCGTCAGATGTGTATAAGAGACAGTTTTTTTTTTTTTTTTTTTTTTTTT…TC
Conditions: aptamer strand: ATP DNA aptamer (quencher-CACCTGGGGGAGTATTGCGGAGGAAGG + anchor), 100 nM annealed; ATP concentration: 500 uM
Method in brief: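 Exposure to 500 uM ATP lasted 15 min at 22 °C before imaging, and a selection-buffer image was taken beforehand, for Cy3-labelled switching-strand clusters on a modified Illumina MiSeq flow-cell annealed to 100 nM quencher-labelled ATP aptamer. Five buffer/ATP cycles were run with NaOH stripping and re-annealing between them. The fluorescence ratio per cluster is summed target-cycle over summed buffer-cycle Cy3 intensity, averaged per switch-domain sequence. Clusters outside 100-1000 RFU were excluded.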

Sequence	switch fluorescence ratio
TATAGGGGTG	1.03 ± 0.039
TATAGGTAAT	1.03 ± 0.011
TATAGGTGCA	0.997 ± 0.024
TATAGTATGT	1.01 ± 0.015
TATATAAATT	0.985 ± 0.021
TATATATAAC	1.006 ± 0.0081
TATATATAGG	1 ± 0.025
TATATATTAA	1.001 ± 0.0023
TATATATTGC	1.02 ± 0.03
TATATCAATC	0.991 ± 0.013
TATATCGTC	1.19 ± 0.31
TATATCTTCA	1.017 ± 0.0055
TATATGCGCG	0.994 ± 0.041
TATATGGGGC	1.03 ± 0.03
TATATGGTGG	1.02 ± 0.056
TATATGGTTG	0.9383 ± 0.0022
TATATGTCCA	1 ± 0.027
TATATTACCC	1.05 ± 0.065
TATATTAGGT	1.13 ± 0.1
TATATTCTTA	1 ± 0.065
TATATTGAGG	0.991 ± 0.042
TATATTGGGA	0.992 ± 0.022
TATATTGTAA	1.01 ± 0.013
TATATTTAAG	1.01 ± 0.03
TATATTTCGG	0.995 ± 0.044

Sequence	switch fluorescence ratio
TATCAGTCGT	0.988 ± 0.032
TATCATATCA	0.956 ± 0.017
TATCATGTGA	1.01 ± 0.011
TATCATTGGG	0.968 ± 0.029
TATCATTTTG	0.986 ± 0.057
TATCCCTGTT	0.976 ± 0.013
TATCCGGGGT	1.03 ± 0.025
TATCCTTTCA	1.04 ± 0.026
TATCCTTTGA	1.002 ± 0.0014
TATCGAATCC	0.99 ± 0.025
TATCGAGCAT	1.028 ± 0.0096
TATCGAGTTT	1 ± 0.038
TATCGGAAGG	0.9901 ± 0.0013
TATCGGCGTG	0.98796 ± 0.00031
TATCGGGGCT	0.981 ± 0.064
TATCGGGGGT	1.02 ± 0.039
TATCGGTCGG	0.98 ± 0.021
TATCGGTGTT	0.991 ± 0.027
TATCGTACAG	1.06 ± 0.011
TATCGTAGGA	0.977 ± 0.032
TATCGTATTG	0.979 ± 0.011
TATCGTGATG	0.992 ± 0.039
TATCTAAAAC	1.001 ± 0.0032
TATCTAGAGG	1.01 ± 0.022
TATCTCAGAA	0.99 ± 0.014

Sequence	switch fluorescence ratio
TATCTCTGGG	1.02 ± 0.014
TATCTGGGGC	1.04 ± 0.025
TATGAAAATC	0.983 ± 0.03
TATGAAGAAG	0.994 ± 0.054
TATGAAGTCG	0.9937 ± 0.0098
TATGAATAGC	1.02 ± 0.05
TATGAATTTG	1 ± 0.028
TATGACACTT	1.03 ± 0.047
TATGACAGGG	1.05 ± 0.024
TATGACATGG	0.959 ± 0.011
TATGAGAGGC	1.04 ± 0.035
TATGAGCTGG	0.97 ± 0.015
TATGAGGAGT	0.982 ± 0.015
TATGAGTAAT	0.9866 ± 0.0093
TATGATATCC	0.9783 ± 0.0089
TATGATGGGT	1.015 ± 0.01
TATGATGTTA	0.9931 ± 0.0093
TATGCATATT	1.04 ± 0.032
TATGCCTGTG	1.01 ± 0.036
TATGCTGGTT	1.05 ± 0.061
TATGCTTTAA	1.01 ± 0.024
TATGGAAACG	0.981 ± 0.011
TATGGAAAGG	0.994 ± 0.016
TATGGAATTT	0.985 ± 0.009
TATGGAGACC	0.9917 ± 0.0049

Sequence	switch fluorescence ratio
TATGGAGAGC	1.02 ± 0.038
TATGGAGGGT	1.01 ± 0.022
TATGGAGTTG	0.992 ± 0.032
TATGGATCTA	0.986 ± 0.048
TATGGCATAC	1.51 ± 0.02
TATGGCGGAG	0.9975 ± 0.0061
TATGGCTTTG	0.9945 ± 0.0061
TATGGGAAGA	0.985 ± 0.027
TATGGGCCTA	0.971 ± 0.053
TATGGGCTAC	1.56 ± 0.74
TATGGGCTGG	0.979 ± 0.049
TATGGGGAAT	1.03 ± 0.098
TATGGGGCTT	0.992 ± 0.017
TATGGGGTAT	0.9863 ± 0.0055
TATGGGGTGT	1.01 ± 0.033
TATGGGTACG	1.01 ± 0.016
TATGGGTCGG	1 ± 0.043
TATGGGTGGG	0.964 ± 0.018
TATGGTCAG	1.02 ± 0.042
TATGGTGAGG	0.976 ± 0.013
TATGGTGGGT	0.995 ± 0.027
TATGGTGTTC	0.981 ± 0.015
TATGGTTTTG	1.01 ± 0.017
TATGTACATG	1 ± 0.026
TATGTAGGGC	1.02 ± 0.05

Sequence	switch fluorescence ratio
TATGTCGGCG	0.991 ± 0.055
TATGTCGGTT	0.985 ± 0.033
TATGTCTCCG	1.03 ± 0.017
TATGTCTCGC	0.995 ± 0.044
TATGTGAGCT	1.01 ± 0.024
TATGTGAGGG	0.988 ± 0.033
TATGTGAGTA	1.01 ± 0.013
TATGTGATGG	0.9874 ± 0.0053
TATGTGGACT	1 ± 0.057
TATGTGGGTA	0.983 ± 0.026
TATGTGTGAC	1.03 ± 0.021
TATGTTACCA	0.977 ± 0.046
TATGTTATTC	1.01 ± 0.045
TATGTTCACG	0.9924 ± 0.0042
TATGTTGCGT	0.9975 ± 0.0078
TATGTTGTCC	0.977 ± 0.018
TATGTTGTGA	0.9902 ± 0.0039
TATGTTTAAA	0.9922 ± 0.0042
TATGTTTCAG	0.972 ± 0.038
TATTAAATTG	0.9975 ± 0.0028
TATTAACATC	1.04 ± 0.014
TATTAAGATA	0.987 ± 0.043
TATTAATATT	1.003 ± 0.0059
TATTAATCGA	1 ± 0.016
TATTAATTCT	0.972 ± 0.036

Sequence	switch fluorescence ratio
TATTAATTGC	0.995 ± 0.025
TATTAATTTT	1.02 ± 0.015
TATTACAGGT	1.03 ± 0.0089
TATTACGGGG	1.005 ± 0.006
TATTAGATTT	0.996 ± 0.014
TATTAGGGTT	1.03 ± 0.045
TATTAGTACT	0.989 ± 0.011
TATTAGTGGG	0.979 ± 0.025
TATTAGTTGG	0.971 ± 0.023
TATTCGAAAT	1.02 ± 0.028
TATTCGCCTT	1.11 ± 0.12
TATTCGGTCG	0.993 ± 0.025
TATTCGTATT	0.981 ± 0.029
TATTCTAGTA	1.01 ± 0.022
TATTCTAGTG	1.013 ± 0.01
TATTCTCTTT	1.04 ± 0.081
TATTGAAAAA	1.06 ± 0.048
TATTGAACGA	1 ± 0.011
TATTGAAGAG	1.008 ± 0.0076
TATTGACCGT	1.04 ± 0.029
TATTGACGGA	1.006 ± 0.0096
TATTGCCTGT	0.974 ± 0.019
TATTGCTTT	0.977 ± 0.012
TATTGGCTTT	0.989 ± 0.014
TATTGGGAGG	0.968 ± 0.023

Sequence	switch fluorescence ratio
TATTGGTGCA	0.967 ± 0.017
TATTGTATGC	0.996 ± 0.037
TATTGTCTAC	0.9901 ± 0.0019
TATTGTGAAA	0.988 ± 0.012
TATTGTGAAT	1 ± 0.014
TATTGTGTCG	1.02 ± 0.016
TATTGTTTTG	0.986 ± 0.033
TATTTAAAAC	1.03 ± 0.021
TATTTAATTT	0.997 ± 0.026
TATTTAGACC	1.04 ± 0.012
TATTTAGAGG	1.01 ± 0.079
TATTTAGGGA	0.987 ± 0.022
TATTTAGGGT	1.01 ± 0.021
TATTTATAGC	1.02 ± 0.013
TATTTATCTG	1.02 ± 0.019
TATTTATGGT	0.976 ± 0.039
TATTTATGTC	1.02 ± 0.025
TATTTATTGT	1.01 ± 0.008
TATTTCATTT	1.06 ± 0.072
TATTTCCACT	1.023 ± 0.01
TATTTCGCGG	0.993 ± 0.045
TATTTCGGTG	0.982 ± 0.027
TATTTCTGTT	0.984 ± 0.025
TATTTGAAAT	1.01 ± 0.039
TATTTGAGGG	1 ± 0.041

Sequence	switch fluorescence ratio
TATTTGCACG	1.07 ± 0.062
TATTTGCATC	1.01 ± 0.018
TATTTGGATC	0.991 ± 0.035
TATTTGGATG	1.03 ± 0.069
TATTTGGCTT	1 ± 0.025
TATTTGGGGC	1.01 ± 0.058
TATTTGGTAT	0.9862 ± 0.0075
TATTTGTCCA	0.981 ± 0.047
TATTTGTTTT	0.998 ± 0.039
TATTTTAATC	1.04 ± 0.059
TATTTTACGC	1.01 ± 0.024
TATTTTATAT	0.943 ± 0.021
TATTTTATGT	1.021 ± 0.0042
TATTTTGAAC	1.0289 ± 4.6e-05
TATTTTGAGA	0.997 ± 0.012
TATTTTGTAG	0.995 ± 0.019
TATTTTTACA	1.012 ± 0.0086
TATTTTTGCG	0.97 ± 0.05
TATTTTTTGT	1.01 ± 0.021
TATTTTTTTG	1.01 ± 0.018
TCAAAAGGTG	1.33 ± 0.22
TCAAAATATA	0.987 ± 0.061
TCAAAATGCA	0.9976 ± 0.0092
TCAAAGGGCC	1.004 ± 0.0073
TCAAAGGGGG	0.951 ± 0.023
